{"source": "paper PMC9352680", "about": "“A comprehensive thermodynamic model for RNA binding by the Saccharomyces cerevisiae Pumilio protein PUF4”", "binders": {"B1": {"name": "Id_ii_S2_P5E.2_K5.1_C5.2_[T-1C]_H5.1_A5.1_F5.1_T5.2_[T11A]_[A12T] (ssRNA)", "RNA": "UUUGAUUAAUAUGAUAUCGUUCUUUCUCCUGUAUUAUUAAUUUCUUUCUCGAUAUCAUAUUAAUCUUU"}, "B2": {"name": "Id_ii_S2_P5E.3_K5.2_C5.2_[C-2T]_[T-1C]_H5.2_A5.1_F5.1_T5.2_[T11C] (ssRNA)", "RNA": "B1 RNA with C28U, G31A, A40C, U41A"}, "B3": {"name": "Id_ii_S2_P5E.3_K5.2_C5.2_[C-2G]_H5.2_A5.1_F5.1_T5.2_[A12T] (ssRNA)", "RNA": "B1 RNA with C28G, C29U, G31A, A40U"}, "B4": {"name": "Id_ii_S2_P5E.3_K5.2_C5.2_[C-2T]_[T-1C]_H5.2_A5.1_F5.1_T5.2_[T11A] (ssRNA)", "RNA": "B1 RNA with C28U, G31A, U41A"}, "B5": {"name": "Id_ii_S2_P5E.3_K5.2_C5.2_[C-2T]_[T-1C]_H5.2_A5.1_F5.1_T5.2_[T11C]_[A12C] (ssRNA)", "RNA": "B1 RNA with C28U, G31A, A40C, U41C"}, "B6": {"name": "Id_ii_S2_P5E.3_K5.2_C5.2_[C-2T]_[T-1G]_H5.2_A5.1_F5.1_T5.2_[T11G]_[A12T] (ssRNA)", "RNA": "B1 RNA with C28U, C29G, G31A, A40G"}, "B7": {"name": "Id_ii_S2_P5E.3_K5.2_C5.2_[C-2G]_H5.2_A5.1_F5.1_T5.2_[T11G]_[A12T] (ssRNA)", "RNA": "B1 RNA with C28G, C29U, G31A, A40G"}, "B8": {"name": "Id_ii_S2_P5E.3_K5.2_C5.2_[C-2T]_[T-1C]_H5.2_A5.1_F5.1_T5.2_[A12T] (ssRNA)", "RNA": "B1 RNA with C28U, G31A, A40U"}, "B9": {"name": "Id_ii_S2_P5E.3_K5.2_C5.2_[C-2G]_[T-1C]_H5.2_A5.1_F5.1_T5.2_[A12T] (ssRNA)", "RNA": "B1 RNA with C28G, G31A, A40U"}, "B10": {"name": "Id_ii_S2_P5E.3_K5.2_C5.2_[C-2T]_[T-1C]_H5.2_A5.1_F5.1_T5.2_[T11A]_[A12G] (ssRNA)", "RNA": "B1 RNA with C28U, G31A, U41G"}, "B11": {"name": "Id_ii_S2_P5E.3_K5.2_C5.2_[C-2T]_[T-1C]_H5.2_A5.1_F5.1_T5.2_[T11A]_[A12T] (ssRNA)", "RNA": "B1 RNA with C28U, G31A"}, "B12": {"name": "Id_ii_S2_P5E.3_K5.2_C5.2_[C-2T]_[T-1C]_H5.2_A5.1_F5.1_T5.2_[T11C]_[A12G] (ssRNA)", "RNA": "B1 RNA with C28U, G31A, A40C, U41G"}, "B13": {"name": "Id_ii_S2_P5E.3_K5.2_C5.2_[C-2T]_[T-1C]_H5.2_A5.1_F5.1_T5.2_[T11A]_[A12C] (ssRNA)", "RNA": "B1 RNA with C28U, G31A, U41C"}, "B14": {"name": "Id_ii_S2_P5E.3_K5.2_C5.2_[C-2T]_[T-1C]_H5.2_A5.1_F5.1_T5.2_[T11C]_[A12T] (ssRNA)", "RNA": "B1 RNA with C28U, G31A, A40C"}, "B15": {"name": "Id_ii_S2_P5E.2_K5.1_C5.2_H5.1_A5.1_F5.1_T5.2_[T11A] (ssRNA)", "RNA": "B1 RNA with C29U, U41A"}, "B16": {"name": "Id_ii_S2_P5E.3_K5.2_C5.2_[C-2G]_[T-1C]_H5.2_A5.1_F5.1_T5.2_[T11C]_[A12T] (ssRNA)", "RNA": "B1 RNA with C28G, G31A, A40C"}, "B17": {"name": "Id_ii_S2_P5E.2_K5.1_C5.2_[T-1A]_H5.1_A5.1_F5.1_T5.2_[T11A]_[A12G] (ssRNA)", "RNA": "B1 RNA with C29A, U41G"}, "B18": {"name": "Id_ii_S2_P5E.3_K5.2_C5.2_[C-2T]_[T-1A]_H5.2_A5.1_F5.1_T5.2_[T11G]_[A12C] (ssRNA)", "RNA": "B1 RNA with C28U, C29A, G31A, A40G, U41C"}, "B19": {"name": "Id_ii_S2_P5E.3_K5.2_C5.2_[C-2T]_[T-1A]_H5.2_A5.1_F5.1_T5.2_[T11G]_[A12T] (ssRNA)", "RNA": "B1 RNA with C28U, C29A, G31A, A40G"}, "B20": {"name": "Id_ii_S2_P5E.3_K5.2_C5.2_[C-2G]_[T-1C]_H5.2_A5.1_F5.1_T5.2_[T11A] (ssRNA)", "RNA": "B1 RNA with C28G, G31A, U41A"}, "B21": {"name": "Id_ii_S2_P5E.3_K5.2_C5.2_[C-2G]_H5.2_A5.1_F5.1_T5.2_[T11C]_[A12G] (ssRNA)", "RNA": "B1 RNA with C28G, C29U, G31A, A40C, U41G"}, "B22": {"name": "Id_ii_S2_P5E.3_K5.2_C5.2_[C-2G]_[T-1C]_H5.2_A5.1_F5.1_T5.2_[T11C]_[A12G] (ssRNA)", "RNA": "B1 RNA with C28G, G31A, A40C, U41G"}, "B23": {"name": "Id_ii_S2_P5E.2_K5.1_C5.2_[T-1A]_H5.1_A5.1_F5.1_T5.2_[A12C] (ssRNA)", "RNA": "B1 RNA with C29A, A40U, U41C"}, "B24": {"name": "Id_ii_S2_P5E.3_K5.2_C5.2_[C-2G]_[T-1C]_H5.2_A5.1_F5.1_T5.2_[T11A]_[A12T] (ssRNA)", "RNA": "B1 RNA with C28G, G31A"}, "B25": {"name": "Id_ii_S2_P5E.2_K5.1_C5.2_[T-1C]_H5.1_A5.1_F5.1_T5.2_[A12G] (ssRNA)", "RNA": "B1 RNA with A40U, U41G"}, "B26": {"name": "Id_ii_S2_P5E.3_K5.2_C5.2_[C-2G]_H5.2_A5.1_F5.1_T5.2_[T11A] (ssRNA)", "RNA": "B1 RNA with C28G, C29U, G31A, U41A"}, "B27": {"name": "Id_ii_S2_P5E.3_K5.2_C5.2_[C-2T]_[T-1G]_H5.2_A5.1_F5.1_T5.2_[T11A]_[A12C] (ssRNA)", "RNA": "B1 RNA with C28U, C29G, G31A, U41C"}, "B28": {"name": "Id_ii_S2_P5E.3_K5.2_C5.2_[C-2G]_H5.2_A5.1_F5.1_T5.2_[T11C]_[A12C] (ssRNA)", "RNA": "B1 RNA with C28G, C29U, G31A, A40C, U41C"}, "B29": {"name": "Id_ii_S2_P5E.2_K5.1_C5.2_[T-1C]_H5.1_A5.1_F5.1_T5.2_[T11A] (ssRNA)", "RNA": "B1 RNA with U41A"}}, "note": "Changes are numbered by the printed parent chain. Numbers in names are those of the source.", "data": [{"target": "T1, PUF4 RNA-binding domain (Saccharomyces cerevisiae, UniProt P25339 537-888)", "T1 sequence": "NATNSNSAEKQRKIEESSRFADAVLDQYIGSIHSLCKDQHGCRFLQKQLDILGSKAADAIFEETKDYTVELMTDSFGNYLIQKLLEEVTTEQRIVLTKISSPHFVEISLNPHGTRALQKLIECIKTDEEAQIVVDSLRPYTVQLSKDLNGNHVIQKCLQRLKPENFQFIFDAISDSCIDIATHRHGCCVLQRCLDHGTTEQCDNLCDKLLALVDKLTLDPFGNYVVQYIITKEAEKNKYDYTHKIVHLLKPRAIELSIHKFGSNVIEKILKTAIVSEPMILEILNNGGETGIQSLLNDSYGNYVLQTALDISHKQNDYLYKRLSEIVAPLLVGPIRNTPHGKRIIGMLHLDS", "assay": "Mg; RNA-MaP; 20 mM Na-HEPES pH 7.4, 30 mM KOAc, 0.75 mM MgCl2, 0.1% Tween-20, 5% glycerol, 0.1 mg/mL BSA, 2 mM DTT; 25 C; 0.0125-409.6 nM protein", "conditions": "tags: N-His6-TEV cleaved; C-SNAP kept, Cy3B-labelled; label: tethered on chip by stalled RNA polymerase", "units": {"Kd": "nM"}, "values": [{"binder": "B1", "Kd": 1.44}, {"binder": "B2", "Kd": 179}, {"binder": "B3", "Kd": 11.7}, {"binder": "B4", "Kd": 220}, {"binder": "B5", "Kd": 65.6}, {"binder": "B6", "Kd": 0.685}, {"binder": "B7", "Kd": 16.7}, {"binder": "B8", "Kd": 80.1}, {"binder": "B9", "Kd": 92.5}, {"binder": "B10", "Kd": "> 2300"}, {"binder": "B11", "Kd": 149}, {"binder": "B12", "Kd": 419}, {"binder": "B13", "Kd": 94.7}, {"binder": "B14", "Kd": 82.2}, {"binder": "B15", "Kd": 3.44}, {"binder": "B16", "Kd": 161}, {"binder": "B17", "Kd": 26.7}, {"binder": "B18", "Kd": 13.9}, {"binder": "B19", "Kd": 41.6}, {"binder": "B20", "Kd": 394}, {"binder": "B21", "Kd": 68.5}, {"binder": "B22", "Kd": 635}, {"binder": "B23", "Kd": 2.97}, {"binder": "B24", "Kd": 95.1}, {"binder": "B25", "Kd": 2.27}, {"binder": "B26", "Kd": 21.3}, {"binder": "B27", "Kd": 0.571}, {"binder": "B28", "Kd": 14.9}, {"binder": "B29", "Kd": 3.1}]}]}
